Data reported in patent publication US9187525B2, “Methods of treating ophthalmic diseases using NPR-B agonists” (Shire Orphan Therapies GmbH, dated 2015).
Numbered stars: 1 amine (or outer) side, 2 acyl side, 3 side chain; on linkers, the order of the positions; unused ones are H or OH. Square brackets hold non-standard residues; d marks the D form. Ends that are not written are not given here. * marks the point of attachment. Tap(Ae) = (2S,4R)-4-(2-aminoethylamino)pyrrolidine-2-carboxylic acid, O=C([C@@H]1C[C@@H](NCCN[*:3])CN1[*:1])[*:2]; dap(6263)2 = (R)-2-amino-3-(bis(2-aminoethyl)amino)propanoic acid, NCCN(CCN[*:3])C[C@@H](N[*:1])C(=O)[*:2]; Tap(Ap) = 4-(3-amino-propylamino)-pyrrolidine-2-carboxylic acid; Pro(trans-4-NH2) = O=C([C@@H]1C[C@@H](N[*:3])CN1[*:1])[*:2]; Sni = (S)-nipecotic acid, O=C([C@H]1CCCN([*:1])C1)[*:2]; Egg = 2-Amino-3-piperidin-4-yl-propionic acid; Oic = O=C(O)[C@@H]1C[C@@H]2CCCC[C@@H]2N1; Fhy = Amino-piperidin-3-yl-acetic acid; dDap(Me2) = CN(C)C[C@@H](N)C(=O)O; Hyp = O=C(O)[C@@H]1C[C@@H](O)CN1; Dap(Me2) = CN(C)C[C@H](N)C(=O)O; NMeL = CN[C@@H](CC(C)C)C(=O)O; AR‑201‑58 = not defined here; AR‑201‑59 = not defined here; AR‑201‑62 = not defined here; AR‑201‑69 = not defined here; Tle = CC(C)(C)[C@H](N)C(=O)O; Pip = O=C(O)[C@@H]1CCCCN1; Ac6c = NC1(C(=O)O)CCCCC1; Nle = CCCC[C@H](N)C(=O)O; Octanoyl = CCCCCCCC(=O)*; dDap = NC[C@@H](N)C(=O)O; Ac5c = NC1(C(=O)O)CCCC1; Api = NC1(C(=O)O)CCNCC1; Et2 = not defined here; Hexanoyl = CCCCCC(=O)*; Nbt = 4-butyl-thiazole; Sbt = 5-butyl-thiazole; Occ = octanoic acid

T1: natriuretic peptide receptor-B (human)
T1 chain: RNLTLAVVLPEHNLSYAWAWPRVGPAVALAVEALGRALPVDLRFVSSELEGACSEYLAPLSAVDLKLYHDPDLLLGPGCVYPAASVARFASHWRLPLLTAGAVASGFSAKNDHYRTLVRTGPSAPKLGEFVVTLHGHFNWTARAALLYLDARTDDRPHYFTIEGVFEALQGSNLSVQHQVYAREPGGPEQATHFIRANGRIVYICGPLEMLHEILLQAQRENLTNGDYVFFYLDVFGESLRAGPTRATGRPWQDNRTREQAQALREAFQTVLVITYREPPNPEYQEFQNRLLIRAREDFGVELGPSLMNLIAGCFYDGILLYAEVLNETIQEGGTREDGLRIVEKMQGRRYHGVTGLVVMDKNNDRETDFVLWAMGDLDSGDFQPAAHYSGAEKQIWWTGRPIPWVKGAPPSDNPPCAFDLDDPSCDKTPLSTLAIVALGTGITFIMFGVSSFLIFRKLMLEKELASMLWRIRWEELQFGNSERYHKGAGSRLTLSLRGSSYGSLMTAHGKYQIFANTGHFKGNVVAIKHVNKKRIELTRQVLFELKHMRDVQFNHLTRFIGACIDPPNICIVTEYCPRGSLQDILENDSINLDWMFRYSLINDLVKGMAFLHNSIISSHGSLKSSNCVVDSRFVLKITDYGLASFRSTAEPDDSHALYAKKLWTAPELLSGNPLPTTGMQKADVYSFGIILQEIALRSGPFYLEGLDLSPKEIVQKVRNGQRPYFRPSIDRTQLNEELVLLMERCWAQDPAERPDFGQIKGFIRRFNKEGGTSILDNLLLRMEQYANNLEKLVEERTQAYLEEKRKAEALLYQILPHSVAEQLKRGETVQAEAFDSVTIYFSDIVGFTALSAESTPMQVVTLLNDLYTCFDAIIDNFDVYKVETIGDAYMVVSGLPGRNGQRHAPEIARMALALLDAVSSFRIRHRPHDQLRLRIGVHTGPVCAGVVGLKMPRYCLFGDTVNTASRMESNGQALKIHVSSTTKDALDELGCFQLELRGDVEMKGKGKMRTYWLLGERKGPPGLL


Target: T1, natriuretic peptide receptor-B
Experiment: cell-based or functional assay

Binder	EC50 group, cGMP in GTM-3 cells [µM]
[Occ][dA]F[Egg]L[Hyp][NMeL]DRI-NH2 [JAL-1337]	≤ 5
Octanoyl-[dA]F[dDap](Me2)L[Pro(trans-4-NH2)][NMeL]DRI-NH2 [JAL-1347]	≤ 5
Octanoyl-[dA]F[Api]L[Pro(trans-4-NH2)][NMeL]DRI-NH2 [JAL-1350]	≤ 1
[Occ][dA]F[Fhy]L[Hyp][NMeL]DRI-NH2 [JAL-1336]	≤ 1
[Sbt][Sni]F[dR]L[Hyp][NMeL]DRI-NH2 [JAL-1343]	≤ 1
Octanoyl-[Sni]F[dL]L[Tap(Ae)][NMeL]DRI-NH2 [JAL-1371]	≤ 1
XXFGLKLDRI (HELM PEPTIDE1{[CCCCCC(=O)[*:2]].[O=C(c1ccc(CN[*:1])cc1)[*:2]].F.G.L.K.L.D.R.I.[am]}$$$$V2.0; SMILES CCCCCC(=O)NCc1ccc(C(=O)N[C@@H](Cc2ccccc2)C(=O)NCC(=O)N[C@@H](CC(C)C)C(=O)N[C@@H](CCCCN)C(=O)N[C@@H](CC(C)C)C(=O)N[C@@H](CC(=O)O)C(=O)N[C@@H](CCCNC(=N)N)C(=O)N[C@H](C(N)=O)[C@@H](C)CC)cc1) [JAL-0648]	≤ 15
Hexanoyl-S[dP]FGLKLDRI-NH2 [JAL-0638]	≤ 15
Octanoyl-[dA]F[dL][Dap(Me2)][Hyp][NMeL]DRI-NH2 [JAL-1368]	≤ 5
Octanoyl-[Sni]F[dL]L[Pro(trans-4-NH2)](Et)[NMeL]DRI-NH2 [JAL-1349]	≤ 1
Octanoyl-[Sni]F[dL]L[Pro(trans-4-NH2)](Et2)[NMeL]DRI-NH2 (reading uncertain; also: printed as Occ-Sni-Phe-leu-Leu-Tap(Et2)-Nml-Asp-Arg-Ile-NH2) [JAL-1348]	≤ 5
Octanoyl-[dA]F[dL]L[Hyp][NMeL]DR[Ac6c]-NH2 [JAL-1358]	≤ 1
[AR‑201‑58]F[dR]L[Hyp][NMeL]DRI-NH2 (reading uncertain; also: printed as (AR-201-58)-Phe-arg-Leu-Hyp-Nml-Asp-Arg-Ile-NH2) [JAL-1339]	≤ 15
Octanoyl-[dA]F[dL]L[Hyp][NMeL]D[Nle]I-NH2 [JAL-1360]	≤ 15
Octanoyl-[dA]F[dL]L[Hyp][NMeL]IRI-NH2 [JAL-1363]	≤ 5
Octanoyl-[dA]F[dL]L[Hyp][Pip]DRI-NH2 [JAL-1366]	≤ 5
Octanoyl-[Sni]F[dL]L[Tap(Ap)][NMeL]DRI-NH2 [JAL-1372]	≤ 1
Octanoyl-[dA]F[dR]L[Hyp][NMeL]D[Nle]I-NH2 [JAL-1361]	≤ 15
Octanoyl-[Sni]F[dDap(Me2)]L[Pro(trans-4-NH2)][NMeL]DRI-NH2 [JAL-1369]	≤ 1

Binder	EC50 group, cGMP in GTM-3 cells [µM]
[AR‑201‑69]F[dR]L[Hyp][NMeL]DRI-NH2 (reading uncertain; also: printed as (AR-201-69)-Phe-arg-Leu-Hyp-Nml-Asp-Arg-Ile-NH2) [JAL-1342]	≤ 5
[Occ][dA]F[dL]L[Hyp][NMeL]TRI-NH2 [JAL-1334]	≤ 5
[AR‑201‑59]F[dR]L[Hyp][NMeL]DRI-NH2 (reading uncertain; also: printed as (AR-201-59)-Phe-arg-Leu-Hyp-Nml-Asp-Arg-Ile-NH2) [JAL-1340]	≤ 15
Octanoyl-[dA]F[dR]L[Hyp][NMeL]IRI-NH2 [JAL-1362]	≤ 15
Octanoyl-[dA]F[dR]L[Hyp][Oic]DRI-NH2 [JAL-1364]	≤ 5
[Occ][Sni]F[dap(6263)2]L[Pro(trans-4-NH2)][NMeL]DRI-NH2 [JAL-1370]	≤ 5
[Occ][dA]F[Api]L[Hyp][NMeL]DRI-NH2 [JAL-1338]	≤ 1
Octanoyl-[dA]F[dL]L[Hyp][Dap(Me2)]DRI-NH2 [JAL-1367]	≤ 1
Octanoyl-[dA]F[dR]L[Hyp][NMeL]DR[Ac6c]-NH2 [JAL-1359]	≤ 5
Octanoyl-[dA]F[dR]L[Hyp][Pip]DRI-NH2 [JAL-1365]	≤ 15
[Sbt][dA]F[dR]L[Hyp][NMeL]DRI-NH2 [JAL-1345]	≤ 15
[Occ][dA]F[dL]L[Hyp][NMeL]DR[Ac5c]-NH2 [JAL-1335]	≤ 5
Nbt-[dA]F[dR]L[Hyp][NMeL]DRI-NH2 [JAL-1346]	≤ 15
XXFGLKLDRI (HELM PEPTIDE1{[CCCCCC(=O)[*:2]].[O=C(c1cccc(CN[*:1])c1)[*:2]].F.G.L.K.L.D.R.I.[am]}$$$$V2.0; SMILES CCCCCC(=O)NCc1cccc(C(=O)N[C@@H](Cc2ccccc2)C(=O)NCC(=O)N[C@@H](CC(C)C)C(=O)N[C@@H](CCCCN)C(=O)N[C@@H](CC(C)C)C(=O)N[C@@H](CC(=O)O)C(=O)N[C@@H](CCCNC(=N)N)C(=O)N[C@H](C(N)=O)[C@@H](C)CC)c1) [JAL-0647]	≤ 15
[AR‑201‑62]F[dR]L[Hyp][NMeL]DRI-NH2 (reading uncertain; also: printed as (AR-201-62)-Phe-arg-Leu-Hyp-Nml-Asp-Arg-Ile-NH2) [JAL-1341]	≤ 5
Octanoyl-[dA]F[dL]L[Hyp][NMeL]DR[Tle]-NH2 [JAL-1352]	≤ 1
[Nbt][Sni]F[dR]L[Hyp][NMeL]DRI-NH2 [JAL-1344]	≤ 5
[Occ][Sni]F[Api]L[Pro(trans-4-NH2)][NMeL]DRI-NH2 [JAL-1351]	≤ 1
